Laboratory results reported in doi:10.1101/2023.02.23.529712.
No end group written: not given here.

Biological target: recombinant rat arrestin-2 (rat), P29066
Test: MST + fluorescence polarisation

Sequence of recombinant rat arrestin-2 (rat), P29066 (P29066 whole entry): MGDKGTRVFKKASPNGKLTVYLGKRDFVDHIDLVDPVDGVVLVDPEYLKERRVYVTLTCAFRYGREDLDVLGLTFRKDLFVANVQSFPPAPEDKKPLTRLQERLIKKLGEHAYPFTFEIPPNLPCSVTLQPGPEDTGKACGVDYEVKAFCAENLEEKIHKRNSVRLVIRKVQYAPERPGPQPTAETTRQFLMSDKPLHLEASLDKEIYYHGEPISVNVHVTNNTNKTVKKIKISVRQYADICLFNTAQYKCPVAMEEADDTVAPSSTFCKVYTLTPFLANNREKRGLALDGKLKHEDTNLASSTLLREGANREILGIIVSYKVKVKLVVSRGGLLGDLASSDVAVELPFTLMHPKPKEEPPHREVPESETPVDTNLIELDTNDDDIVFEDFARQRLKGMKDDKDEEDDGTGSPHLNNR

B1: phosphomimetic GHSR C-terminus, Q92847 339-366 (domain or fragment)
chain: GFEPFSQRKLEELKDESSRAWTEEEINE
modifications: not fully specified
  Kd: 200 µM
